Key:
[1] = biological target: human cardiac Troponin-T2 (UniProt P45379)
[2] = biological target: human cardiac Troponin-I3 (UniProt P19429)
Chain of human cardiac Troponin-I3 (P19429 whole entry, looked up): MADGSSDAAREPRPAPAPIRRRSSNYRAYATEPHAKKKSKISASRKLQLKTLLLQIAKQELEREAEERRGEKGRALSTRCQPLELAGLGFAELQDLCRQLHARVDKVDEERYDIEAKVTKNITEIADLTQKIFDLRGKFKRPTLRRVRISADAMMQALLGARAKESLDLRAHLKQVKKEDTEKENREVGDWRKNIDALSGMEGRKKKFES

Substance: calpain-2
- in vitro protease digestion, breakdown products on gels [1]: human cardiac Troponin-T2 and Troponin-13 were cleaved by calpain-2 and caspase-3 proteases, producing unique breakdown products
- stated: cleaves (breakdown bands on a gel) [1]: in the two Calpain-2 lanes (rising amount) the Troponin-T2 band at the 30 kDa mark fades and a band b appears between the 15 and 10 kDa marks; arrowheads a, b and c mark products between 15 and 10 kDa beside the higher-amount lane; none of these is in the untreated lane
- in vitro protease digestion, breakdown products on gels [2]: human cardiac Troponin-T2 and Troponin-13 were cleaved by calpain-2 and caspase-3 proteases, producing unique breakdown products
- stated: cleaves (breakdown bands on a gel) [2]: the Tn-I3 (24 kDa) band stays in both Calp-2 lanes (rising amount); arrows A and B mark two faint products below it at the higher-amount lane
